Target: IL-2 receptors on the cell surface of human PBMC populations (Tregs, CD25^high T helper cells, NK cells, cytotoxic T cells)
Assay: cell-based or functional assay

Substance: IL-2-Fc fusion protein F42K/V69A/Q74P, (G4S)4 linker, IgG1 Fc N297G
- Ratio (CD25^high T helper EC50 / Treg EC50): 15.9

Substance: IL-2-Fc fusion protein F42Q/V69A/Q74P, (G4S)4 linker, IgG1 Fc N297G
- Ratio (CD25^high T helper EC50 / Treg EC50): 25.9

Substance: IL-2-Fc fusion protein K35E/V69A/Q74P, (G4S)4 linker, IgG1 Fc N297G
- Ratio (CD25^high T helper EC50 / Treg EC50): 300

Substance: IL-2-Fc fusion protein R38E/V69A/Q74P, (G4S)4 linker, IgG1 Fc N297G
- Ratio (CD25^high T helper EC50 / Treg EC50): 9

Substance: IL-2-Fc fusion protein R38N/V69A/Q74P, (G4S)4 linker, IgG1 Fc N297G
- Ratio (CD25^high T helper EC50 / Treg EC50): 2820

Substance: IL-2-Fc fusion protein R38Q/V69A/Q74P, (G4S)4 linker, IgG1 Fc N297G
- Ratio (CD25^high T helper EC50 / Treg EC50): 28.4

Substance: irrelevant (non-binding) antibody with IL-2 N88D fused to its C-terminus
- pSTAT5 EC50, Treg: 0.37 nM
- pSTAT5 Max. Signal, Treg (relative to V69A/Q74P IL-2-Fc): 0.5
